Measured values reported in patent US20240132578A1.

Experiments:
[1] = target: HIV-1 Env of isolate 93IN905 (HIV-1); assay: cell-based or functional assay
[2] = target: HIV-1 Env of isolate 93MW959 (HIV-1); assay: cell-based or functional assay
[3] = target: HIV-1 Env of isolate 97ZA012 (HIV-1); assay: cell-based or functional assay
[4] = target: HIV-1 Env of isolate 98IN022 (HIV-1); assay: cell-based or functional assay
[5] = target: HIV-1 Env of isolate JRCSF (HIV-1) (UniProt P20871); assay: cell-based or functional assay
[6] = target: HIV-1 Env of isolate MGRM-Chronic-B-010 (HIV-1); assay: cell-based or functional assay
[7] = target: HIV-1 Env of isolate MGRM-Chronic-B-011 (HIV-1); assay: cell-based or functional assay
[8] = target: HIV-1 Env of isolate MGRM-Chronic-B-012 (HIV-1); assay: cell-based or functional assay
[9] = target: HIV-1 Env of isolate MGRM-Chronic-B-017 (HIV-1); assay: cell-based or functional assay
[10] = target: HIV-1 Env of isolate MGRM-Chronic-B-018 (HIV-1); assay: cell-based or functional assay
[11] = target: HIV-1 Env of isolate MGRM-Chronic-B-020 (HIV-1); assay: cell-based or functional assay
[12] = target: HIV-1 Env of isolate MGRM-Chronic-B-023 (HIV-1); assay: cell-based or functional assay
[13] = target: HIV-1 Env of isolate MGRM-Chronic-B-024 (HIV-1); assay: cell-based or functional assay
[14] = target: HIV-1 Env of isolate NL43 (HIV-1); assay: cell-based or functional assay
[15] = target: HIV-1 Env of isolate PVO.4 (HIV-1); assay: cell-based or functional assay
[16] = target: HIV-1 Env of isolate QH0692.42 (HIV-1); assay: cell-based or functional assay
[17] = target: HIV-1 Env of isolate SC422661.8 (HIV-1); assay: cell-based or functional assay
[18] = target: HIV-1 Env of isolate SF162 (HIV-1) (UniProt P19550); assay: cell-based or functional assay
[19] = target: HIV-1 Env of isolate THR0.18 (HIV-1); assay: cell-based or functional assay
[20] = target: HIV-1 Env of isolate TRJ04551.58 (HIV-1); assay: cell-based or functional assay
[21] = target: HIV-1 Env of isolate TRO.11 (HIV-1); assay: cell-based or functional assay
[22] = target: HIV-1 Env of isolate VLGCB3 (HIV-1); assay: cell-based or functional assay
[23] = target: HIV-1 Env of pseudovirus MGRM-F1-004 (HIV-1); assay: cell-based or functional assay
[24] = target: HIV-1 92RW020 Env (HIV-1); assay: cell-based or functional assay
[25] = target: HIV-1 Env of isolate 92UG031 (pseudovirus) (HIV-1); assay: cell-based or functional assay
[26] = target: HIV-1 Env of isolate 92UG037 (pseudovirus) (HIV-1); assay: cell-based or functional assay
[27] = target: HIV-1 Env of isolate 92WR020 (pseudovirus) (HIV-1); assay: cell-based or functional assay
[28] = target: HIV-1 Env of isolate 92WR021 (pseudovirus) (HIV-1); assay: cell-based or functional assay
[29] = target: HIV-1 Env of isolate 92WR024 (pseudovirus) (HIV-1); assay: cell-based or functional assay
[30] = target: HIV-1 Env of isolate 93UG077 (pseudovirus) (HIV-1); assay: cell-based or functional assay
[31] = target: HIV-1 Env of isolate 93WR029 (pseudovirus) (HIV-1); assay: cell-based or functional assay
[32] = target: HIV-1 Env of isolate 94UG103 (pseudovirus) (HIV-1); assay: cell-based or functional assay
[33] = target: HIV-1 Env of isolate MGRM-D-005 (pseudovirus) (HIV-1); assay: cell-based or functional assay
[34] = target: HIV-1 Env of isolate MGRM-F1-018 (HIV-1); assay: cell-based or functional assay
[35] = target: WT JR-FL gp120 (HIV-1 JR-FL); assay: ELISA, antigen-coated wells, mAb titrated; EC50 by nonlinear regression

Chain of PGT-142 (4995_E20) (antibody) (VH): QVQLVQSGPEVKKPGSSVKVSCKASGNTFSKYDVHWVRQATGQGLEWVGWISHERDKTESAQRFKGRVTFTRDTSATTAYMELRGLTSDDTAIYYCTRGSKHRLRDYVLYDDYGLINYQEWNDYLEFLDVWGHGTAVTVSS
Chain of PGT-142 (4995_E20) (antibody) (VL): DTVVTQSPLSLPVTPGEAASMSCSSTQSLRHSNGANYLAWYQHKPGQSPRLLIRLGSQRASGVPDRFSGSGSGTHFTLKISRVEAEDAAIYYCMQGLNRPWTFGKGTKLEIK
Chain of PGT-141 (4964_G22; 4993_K13) (antibody) (VH): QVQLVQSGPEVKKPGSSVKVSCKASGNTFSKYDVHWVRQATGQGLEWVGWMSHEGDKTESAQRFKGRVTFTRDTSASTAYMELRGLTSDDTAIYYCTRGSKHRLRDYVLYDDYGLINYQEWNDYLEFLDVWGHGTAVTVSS
Chain of PGT-145 (4995_P16) (antibody) (VH): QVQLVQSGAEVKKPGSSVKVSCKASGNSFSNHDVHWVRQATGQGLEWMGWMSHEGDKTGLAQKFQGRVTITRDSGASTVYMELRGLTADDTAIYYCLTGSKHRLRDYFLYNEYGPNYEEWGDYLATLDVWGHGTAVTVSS
Chain of PGT-145 (4995_P16) (antibody) (VL): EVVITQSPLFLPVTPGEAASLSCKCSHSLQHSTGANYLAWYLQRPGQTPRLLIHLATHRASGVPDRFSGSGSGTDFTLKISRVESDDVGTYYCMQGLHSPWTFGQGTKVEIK

In the case of PGT-141 (4964_G22; 4993_K13) (antibody), the IC50, pseudovirus neutralization [1] is reported as 0.001 µg/mL, the IC50, pseudovirus neutralization [2] is reported as 0.003 µg/mL and the IC50, pseudovirus neutralization [3] is reported as > 50 µg/mL. The IC50, pseudovirus neutralization [4] was 0.001 µg/mL, the IC50, pseudovirus neutralization [5] was 0.009 µg/mL and the IC50, pseudovirus neutralization [6] was > 50 µg/mL. For the same substance, the IC50, pseudovirus neutralization [7] was 2.24 µg/mL, the IC50, pseudovirus neutralization [8] was > 50 µg/mL and the IC50, pseudovirus neutralization [9] was 0.147 µg/mL. The IC50, pseudovirus neutralization [10] was 0.572 µg/mL, the IC50, pseudovirus neutralization [11] was > 50 µg/mL and the IC50, pseudovirus neutralization [12] was 0.318 µg/mL. The IC50, pseudovirus neutralization [13] was 0.011 µg/mL, the IC50, pseudovirus neutralization [14] was > 50 µg/mL and the IC50, pseudovirus neutralization [15] was 0.113 µg/mL. For the same substance, the IC50, pseudovirus neutralization [16] was > 50 µg/mL, the IC50, pseudovirus neutralization [17] was 1.66 µg/mL and the IC50, pseudovirus neutralization [18] was > 50 µg/mL. For the same substance, the IC50, pseudovirus neutralization [19] was 0.007 µg/mL, the IC50, pseudovirus neutralization [20] was > 50 µg/mL and the IC50, pseudovirus neutralization [21] was 0.383 µg/mL. For the same substance, the IC50, pseudovirus neutralization [22] was > 50 µg/mL and the IC50, pseudovirus neutralization [23] was 0.021 µg/mL.
Work on PGT-145 (4995_P16) (antibody) yielded an IC50, pseudovirus neutralization [1] of 0.002 µg/mL, an IC50, pseudovirus neutralization [2] of 1.2 µg/mL and an IC50, pseudovirus neutralization [3] of 0.915 µg/mL. The IC50, pseudovirus neutralization [4] was 0.005 µg/mL, the IC50, pseudovirus neutralization [5] was 0.002 µg/mL and the IC50, pseudovirus neutralization [6] was > 50 µg/mL. It also gave an IC50, pseudovirus neutralization [7] of 0.206 µg/mL, an IC50, pseudovirus neutralization [8] of 9.66 µg/mL and an IC50, pseudovirus neutralization [9] of 0.054 µg/mL. For the same substance, the IC50, pseudovirus neutralization [10] was 0.013 µg/mL, the IC50, pseudovirus neutralization [11] was > 50 µg/mL and the IC50, pseudovirus neutralization [12] was 0.009 µg/mL. For the same substance, the IC50, pseudovirus neutralization [13] was 0.018 µg/mL, the IC50, pseudovirus neutralization [14] was 0.006 µg/mL and the IC50, pseudovirus neutralization [15] was 0.299 µg/mL. The IC50, pseudovirus neutralization [16] was > 50 µg/mL, the IC50, pseudovirus neutralization [17] was 0.079 µg/mL and the IC50, pseudovirus neutralization [18] was > 50 µg/mL. The IC50, pseudovirus neutralization [19] was 0.013 µg/mL, the IC50, pseudovirus neutralization [20] was > 50 µg/mL and the IC50, pseudovirus neutralization [21] was 0.044 µg/mL. For the same substance, the IC50, pseudovirus neutralization [22] was > 50 µg/mL and the IC50, pseudovirus neutralization [23] was 0.361 µg/mL.
With PGT-142 (4995_E20) (antibody) the IC50, pseudovirus neutralization [1] was 0.001 µg/mL, the IC50, pseudovirus neutralization [2] was 0.001 µg/mL and the IC50, pseudovirus neutralization [3] was > 50 µg/mL. The IC50, pseudovirus neutralization [4] was 0.001 µg/mL, the IC50, pseudovirus neutralization [5] was 0.01 µg/mL and the IC50, pseudovirus neutralization [6] was > 50 µg/mL. For the same substance, the IC50, pseudovirus neutralization [7] was 0.994 µg/mL, the IC50, pseudovirus neutralization [8] was > 50 µg/mL and the IC50, pseudovirus neutralization [9] was 0.076 µg/mL. For the same substance, the IC50, pseudovirus neutralization [10] was 0.323 µg/mL, the IC50, pseudovirus neutralization [11] was > 50 µg/mL and the IC50, pseudovirus neutralization [12] was 0.486 µg/mL. The IC50, pseudovirus neutralization [13] was 0.005 µg/mL, the IC50, pseudovirus neutralization [14] was > 50 µg/mL and the IC50, pseudovirus neutralization [15] was 0.066 µg/mL. The IC50, pseudovirus neutralization [16] was > 50 µg/mL, the IC50, pseudovirus neutralization [17] was 3.15 µg/mL and the IC50, pseudovirus neutralization [18] was > 50 µg/mL. The IC50, pseudovirus neutralization [19] was 0.012 µg/mL, the IC50, pseudovirus neutralization [20] was > 50 µg/mL and the IC50, pseudovirus neutralization [21] was 0.27 µg/mL. The IC50, pseudovirus neutralization [22] was > 50 µg/mL and the IC50, pseudovirus neutralization [23] was 0.013 µg/mL.
5343_B08 (PGT-135) (antibody) was tested, and the IC50, pseudovirus neutralization [24] was 0.157 µg/mL, the IC50 (µg/mL), pseudovirus neutralization [25] was > 50 µg/mL and the IC50 (µg/mL), pseudovirus neutralization [26] was 3.67 µg/mL. The IC50 (µg/mL), pseudovirus neutralization [27] was 0.067 µg/mL, the IC50 (µg/mL), pseudovirus neutralization [28] was > 50 µg/mL and the IC50 (µg/mL), pseudovirus neutralization [29] was > 50 µg/mL. For the same substance, the IC50 (µg/mL), pseudovirus neutralization [1] was 0.011 µg/mL, the IC50 (µg/mL), pseudovirus neutralization [2] was > 50 µg/mL and the IC50 (µg/mL), pseudovirus neutralization [30] was > 50 µg/mL. For the same substance, the IC50 (µg/mL), pseudovirus neutralization [31] was > 50 µg/mL, the IC50 (µg/mL), pseudovirus neutralization [32] was > 50 µg/mL and the IC50 (µg/mL), pseudovirus neutralization [3] was > 50 µg/mL. For the same substance, the IC50 (µg/mL), pseudovirus neutralization [4] was 0.014 µg/mL, the IC50 (µg/mL), pseudovirus neutralization [5] was 0.131 µg/mL and the IC50 (µg/mL), pseudovirus neutralization [6] was > 50 µg/mL. For the same substance, the IC50 (µg/mL), pseudovirus neutralization [7] was > 50 µg/mL, the IC50 (µg/mL), pseudovirus neutralization [8] was 0.166 µg/mL and the IC50 (µg/mL), pseudovirus neutralization [9] was > 50 µg/mL. The IC50 (µg/mL), pseudovirus neutralization [10] was > 50 µg/mL, the IC50 (µg/mL), pseudovirus neutralization [11] was 0.057 µg/mL and the IC50 (µg/mL), pseudovirus neutralization [12] was 0.329 µg/mL. The IC50 (µg/mL), pseudovirus neutralization [13] was > 50 µg/mL, the IC50 (µg/mL), pseudovirus neutralization [33] was > 50 µg/mL and the IC50 (µg/mL), pseudovirus neutralization [34] was > 50 µg/mL. For the same substance, the IC50 (µg/mL), pseudovirus neutralization [14] was 8.03 µg/mL, the IC50 (µg/mL), pseudovirus neutralization [15] was > 50 µg/mL and the IC50 (µg/mL), pseudovirus neutralization [16] was > 50 µg/mL. For the same substance, the IC50 (µg/mL), pseudovirus neutralization [17] was 21.8 µg/mL, the IC50 (µg/mL), pseudovirus neutralization [18] was 0.023 µg/mL and the IC50 (µg/mL), pseudovirus neutralization [19] was > 50 µg/mL. For the same substance, the IC50 (µg/mL), pseudovirus neutralization [20] was > 50 µg/mL, the IC50 (µg/mL), pseudovirus neutralization [21] was 0.03 µg/mL and the IC50 (µg/mL), pseudovirus neutralization [22] was 0.142 µg/mL. For the same substance, the EC50 [35] was 0.1 µg/mL.
